Experimental data reported in PMC2756588.

T1: Bzz1-2, P38822
T1 sequence (P38822 568-633, looked up): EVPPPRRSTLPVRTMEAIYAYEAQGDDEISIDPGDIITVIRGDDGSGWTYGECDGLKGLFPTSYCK

T2: Bzz1-1, P38822
T2 sequence (P38822 478-572, looked up): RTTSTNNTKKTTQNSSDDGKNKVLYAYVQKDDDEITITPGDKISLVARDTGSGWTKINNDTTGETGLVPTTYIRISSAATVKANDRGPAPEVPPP

T3: Sla1-3, P32790
T3 sequence (P32790 344-424, looked up): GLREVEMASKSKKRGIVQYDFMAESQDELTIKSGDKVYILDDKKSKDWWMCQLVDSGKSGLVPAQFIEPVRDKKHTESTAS

T4: Boi2, P39969
T4 sequence (P39969 32-116, looked up): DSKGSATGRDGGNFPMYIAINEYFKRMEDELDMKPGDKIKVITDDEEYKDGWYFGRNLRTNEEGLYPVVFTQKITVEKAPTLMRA

T5: Bbc1, P47068
T5 sequence (P47068 1-78, looked up): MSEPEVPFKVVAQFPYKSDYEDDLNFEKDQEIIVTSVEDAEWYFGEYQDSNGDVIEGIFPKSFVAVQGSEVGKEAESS

T6: Cdc25, P04821
T6 sequence (P04821 50-136, looked up): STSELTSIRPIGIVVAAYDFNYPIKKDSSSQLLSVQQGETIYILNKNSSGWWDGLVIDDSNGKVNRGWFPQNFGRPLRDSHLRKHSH

T7: Lsb4, P32793
T7 sequence (P32793 402-468, looked up): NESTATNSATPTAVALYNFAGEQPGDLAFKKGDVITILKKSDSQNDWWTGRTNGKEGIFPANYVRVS

T8: Sla1-2, P32790
T8 sequence (P32790 60-140, looked up): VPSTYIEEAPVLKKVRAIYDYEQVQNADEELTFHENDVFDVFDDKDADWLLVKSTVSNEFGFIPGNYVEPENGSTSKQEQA

T9: Hse1, P38753
T9 sequence (P38753 208-285, looked up): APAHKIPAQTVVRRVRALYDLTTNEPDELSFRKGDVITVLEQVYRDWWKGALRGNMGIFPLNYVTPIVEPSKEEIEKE

T10: Pin3, Q06449
T10 sequence (Q06449 53-122, looked up): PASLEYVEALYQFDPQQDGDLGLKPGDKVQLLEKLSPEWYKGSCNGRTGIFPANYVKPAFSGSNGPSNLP

T11: Bud14, P27637
T11 sequence (P27637 247-328, looked up): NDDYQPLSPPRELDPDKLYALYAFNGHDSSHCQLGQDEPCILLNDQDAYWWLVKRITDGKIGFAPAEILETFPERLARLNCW

T12: Lsb1, P53281
T12 sequence (P53281 45-122, looked up): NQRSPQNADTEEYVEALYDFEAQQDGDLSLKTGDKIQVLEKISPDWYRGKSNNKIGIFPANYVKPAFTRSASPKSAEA

T13: Hof1, Q05080
T13 sequence (Q05080 590-669, looked up): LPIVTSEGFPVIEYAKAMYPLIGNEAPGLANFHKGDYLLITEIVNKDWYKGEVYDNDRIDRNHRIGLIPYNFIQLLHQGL

T14: Cyk3, Q07533
T14 sequence (Q07533 1-83, looked up): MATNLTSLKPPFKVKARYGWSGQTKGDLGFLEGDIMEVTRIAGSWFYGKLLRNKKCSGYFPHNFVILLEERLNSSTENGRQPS

T15: Pex13, P80667
T15 sequence (P80667 295-386, looked up): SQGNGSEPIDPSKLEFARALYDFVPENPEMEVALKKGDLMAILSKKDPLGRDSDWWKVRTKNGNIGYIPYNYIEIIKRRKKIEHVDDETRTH

T16: Myo5, Q04439
T16 sequence (Q04439 1072-1160, looked up): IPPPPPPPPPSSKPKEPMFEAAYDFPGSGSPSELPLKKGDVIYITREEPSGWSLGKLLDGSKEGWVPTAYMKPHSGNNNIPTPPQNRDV

T17: Boi1, P38041
T17 sequence (P38041 1-86, looked up): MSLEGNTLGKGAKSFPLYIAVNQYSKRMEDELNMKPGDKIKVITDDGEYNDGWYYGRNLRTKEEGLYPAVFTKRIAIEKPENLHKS

T18: Abp1, P15891
T18 sequence (P15891 535-592, looked up): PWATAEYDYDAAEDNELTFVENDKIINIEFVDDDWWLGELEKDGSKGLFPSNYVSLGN

T19: Nbp2, Q12163
T19 sequence (Q12163 103-180, looked up): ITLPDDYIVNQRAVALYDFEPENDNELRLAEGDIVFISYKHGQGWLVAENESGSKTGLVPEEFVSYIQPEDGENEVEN

T20: Fus1, P11710
T20 sequence (P11710 432-512, looked up): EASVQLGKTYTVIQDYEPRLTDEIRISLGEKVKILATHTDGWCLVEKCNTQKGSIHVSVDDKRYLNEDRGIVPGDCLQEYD

T21: Lsb3, P43603
T21 sequence (P43603 385-451, looked up): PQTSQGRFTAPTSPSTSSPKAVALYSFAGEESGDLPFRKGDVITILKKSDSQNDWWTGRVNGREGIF


Each binder was assayed against Rvs167, P39743 (assay: SPOT array). Conditions: median of control spots 2707.
Chain of Rvs167, P39743 (P39743 419-482): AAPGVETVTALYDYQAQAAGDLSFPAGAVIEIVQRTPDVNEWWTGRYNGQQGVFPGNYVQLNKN

| Binder | SPOT intensity |
| --- | --- |
| VGFRLALKFPSRITG | 6 |
| FVLRYYILIPHEQWD | 0 |
| APERAVPILPPRNNV | 1340 |

These binders were tested against T1, Bzz1-2, P38822 (assay: SPOT array). Conditions: median of control spots 4538.

| Binder | SPOT intensity |
| --- | --- |
| VGFRLALKFPSRITG | 109 |
| FVLRYYILIPHEQWD | 2 |
| APERAVPILPPRNNV | 0 |

These binders were tested against T2, Bzz1-1, P38822 (assay: SPOT array). Conditions: median of control spots 4446.

| Binder | SPOT intensity |
| --- | --- |
| VGFRLALKFPSRITG | 3 |
| FVLRYYILIPHEQWD | 1 |
| APERAVPILPPRNNV | 1 |

The binders below were run against GST (assay: SPOT array). Conditions: median of control spots 978.

| Binder | SPOT intensity |
| --- | --- |
| VGFRLALKFPSRITG | 0 |
| FVLRYYILIPHEQWD | 0 |
| APERAVPILPPRNNV | 0 |

Each binder was assayed against T3, Sla1-3, P32790 (assay: SPOT array). Conditions: median of control spots 5475.

| Binder | SPOT intensity |
| --- | --- |
| VGFRLALKFPSRITG | 124 |
| FVLRYYILIPHEQWD | 3 |
| APERAVPILPPRNNV | 0 |

What follows are binders tested against T4, Boi2, P39969 (assay: SPOT array). Conditions: median of control spots 1161.

| Binder | SPOT intensity |
| --- | --- |
| VGFRLALKFPSRITG | 70 |
| FVLRYYILIPHEQWD | 1 |
| APERAVPILPPRNNV | 1 |

What follows are binders tested against Sho1, P40073 (assay: SPOT array). Conditions: median of control spots 1148.
Chain of Sho1, P40073 (P40073 287-367): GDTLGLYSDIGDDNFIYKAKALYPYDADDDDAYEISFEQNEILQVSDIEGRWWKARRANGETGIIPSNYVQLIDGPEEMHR

| Binder | SPOT intensity |
| --- | --- |
| VGFRLALKFPSRITG | 718 |
| FVLRYYILIPHEQWD | 5 |
| APERAVPILPPRNNV | 7 |

These binders were tested against T5, Bbc1, P47068 (assay: SPOT array). Conditions: median of control spots 796.

| Binder | SPOT intensity |
| --- | --- |
| VGFRLALKFPSRITG | 663 |
| FVLRYYILIPHEQWD | 15 |
| APERAVPILPPRNNV | 13 |

The binders below were run against T6, Cdc25, P04821 (assay: SPOT array). Conditions: median of control spots 969.

| Binder | SPOT intensity |
| --- | --- |
| VGFRLALKFPSRITG | 490 |
| FVLRYYILIPHEQWD | 59 |
| APERAVPILPPRNNV | 1 |

These binders were tested against T7, Lsb4, P32793 (assay: SPOT array). Conditions: median of control spots 397.

| Binder | SPOT intensity |
| --- | --- |
| VGFRLALKFPSRITG | 207 |
| FVLRYYILIPHEQWD | 0 |
| APERAVPILPPRNNV | 1220 |

These binders were tested against T8, Sla1-2, P32790 (assay: SPOT array). Conditions: median of control spots 712.

| Binder | SPOT intensity |
| --- | --- |
| VGFRLALKFPSRITG | 52 |
| FVLRYYILIPHEQWD | 3 |
| APERAVPILPPRNNV | 0 |

What follows are binders tested against T9, Hse1, P38753 (assay: SPOT array). Conditions: median of control spots 1727.

| Binder | SPOT intensity |
| --- | --- |
| VGFRLALKFPSRITG | 113 |
| FVLRYYILIPHEQWD | 2 |
| APERAVPILPPRNNV | 1 |

Each binder was assayed against T10, Pin3, Q06449 (assay: SPOT array). Conditions: median of control spots 2171.

| Binder | SPOT intensity |
| --- | --- |
| VGFRLALKFPSRITG | 150 |
| FVLRYYILIPHEQWD | 9 |
| APERAVPILPPRNNV | 13 |

The binders below were run against T11, Bud14, P27637 (assay: SPOT array). Conditions: median of control spots 956.

| Binder | SPOT intensity |
| --- | --- |
| VGFRLALKFPSRITG | 29 |
| FVLRYYILIPHEQWD | 1 |
| APERAVPILPPRNNV | 0 |

The binders below were run against T12, Lsb1, P53281 (assay: SPOT array). Conditions: median of control spots 388.

| Binder | SPOT intensity |
| --- | --- |
| VGFRLALKFPSRITG | 452 |
| FVLRYYILIPHEQWD | 2 |
| APERAVPILPPRNNV | 290 |

Each binder was assayed against T13, Hof1, Q05080 (assay: SPOT array). Conditions: median of control spots 4086.

| Binder | SPOT intensity |
| --- | --- |
| VGFRLALKFPSRITG | 25 |
| FVLRYYILIPHEQWD | 5 |
| APERAVPILPPRNNV | 63 |

The binders below were run against Bem1-1, P29366 (assay: SPOT array). Conditions: median of control spots 4282.
Chain of Bem1-1, P29366 (P29366 55-141): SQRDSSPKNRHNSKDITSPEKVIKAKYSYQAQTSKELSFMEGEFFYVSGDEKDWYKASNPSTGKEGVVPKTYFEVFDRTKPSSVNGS

| Binder | SPOT intensity |
| --- | --- |
| VGFRLALKFPSRITG | 0 |
| FVLRYYILIPHEQWD | 2 |
| APERAVPILPPRNNV | 1 |

Each binder was assayed against T14, Cyk3, Q07533 (assay: SPOT array). Conditions: median of control spots 1451.

| Binder | SPOT intensity |
| --- | --- |
| VGFRLALKFPSRITG | 25 |
| FVLRYYILIPHEQWD | 0 |
| APERAVPILPPRNNV | 0 |

Each binder was assayed against Bem1-2, P29366 (assay: SPOT array). Conditions: median of control spots 4347.
Chain of Bem1-2, P29366 (P29366 139-227): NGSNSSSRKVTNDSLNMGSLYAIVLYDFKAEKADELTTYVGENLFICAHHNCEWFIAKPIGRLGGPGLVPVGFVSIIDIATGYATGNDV

| Binder | SPOT intensity |
| --- | --- |
| VGFRLALKFPSRITG | 0 |
| FVLRYYILIPHEQWD | 13 |
| APERAVPILPPRNNV | 2 |

The binders below were run against T15, Pex13, P80667 (assay: SPOT array). Conditions: median of control spots 1341.

| Binder | SPOT intensity |
| --- | --- |
| VGFRLALKFPSRITG | 127 |
| FVLRYYILIPHEQWD | 10 |
| APERAVPILPPRNNV | 536 |

These binders were tested against T16, Myo5, Q04439 (assay: SPOT array). Conditions: median of control spots 471.

| Binder | SPOT intensity |
| --- | --- |
| VGFRLALKFPSRITG | 69 |
| FVLRYYILIPHEQWD | 0 |
| APERAVPILPPRNNV | 0 |

What follows are binders tested against T17, Boi1, P38041 (assay: SPOT array). Conditions: median of control spots 1162.

| Binder | SPOT intensity |
| --- | --- |
| VGFRLALKFPSRITG | 152 |
| FVLRYYILIPHEQWD | 6 |
| APERAVPILPPRNNV | 0 |

Each binder was assayed against Myo3, P36006 (assay: SPOT array). Conditions: median of control spots 468.

| Binder | SPOT intensity |
| --- | --- |
| VGFRLALKFPSRITG | 164 |
| FVLRYYILIPHEQWD | 0 |
| APERAVPILPPRNNV | 66 |

Each binder was assayed against T18, Abp1, P15891 (assay: SPOT array). Conditions: median of control spots 935.

| Binder | SPOT intensity |
| --- | --- |
| VGFRLALKFPSRITG | 489 |
| FVLRYYILIPHEQWD | 0 |
| APERAVPILPPRNNV | 4 |

These binders were tested against T19, Nbp2, Q12163 (assay: SPOT array). Conditions: median of control spots 357.

| Binder | SPOT intensity |
| --- | --- |
| VGFRLALKFPSRITG | 1100 |
| FVLRYYILIPHEQWD | 47 |
| APERAVPILPPRNNV | 0 |

These binders were tested against T20, Fus1, P11710 (assay: SPOT array). Conditions: median of control spots 1200.

| Binder | SPOT intensity |
| --- | --- |
| VGFRLALKFPSRITG | 430 |
| FVLRYYILIPHEQWD | 42 |
| APERAVPILPPRNNV | 0 |

The binders below were run against T21, Lsb3, P43603 (assay: SPOT array). Conditions: median of control spots 406.

| Binder | SPOT intensity |
| --- | --- |
| VGFRLALKFPSRITG | 166 |
| FVLRYYILIPHEQWD | 0 |
| APERAVPILPPRNNV | 771 |
